Consider 1 substance from paper PMC7583038.

Experiment [1] has as its target wild-type eel follicle-stimulating hormone receptor (eel).
The target is the same in experiment [2]. The source holds these as a separate data set.

For “recombinant eel follicle-stimulating hormone (ligand)”, the EC50 of the rec-eelFSH-stimulated cAMP response (HTRF) in transfected CHO-K1 cells, 30 min stood at 544 ng/mL in the experiment with eelFSHR-D540N (eel), 524 ng/mL in experiment [1], 359 ng/mL with eelFSHR-D540G (eel) and 385 ng/mL with eelFSHR-R546C (eel). Also, the EC50 of the rec-eelFSH-stimulated cAMP response (HTRF) in transfected CHO-K1 cells, 30 min (series with the inactivating mutants) in experiment [2] stood at 314 ng/mL.
